Measured values from paper PMC11696373 (Nature Communications, 2025).

Molecular target: the molecule itself
Test: cryo-EM structure

B1: human XPR1 (natural protein)
chain: MKFAEHLSAHITPEWRKQYIQYEAFKDMLYSAQDQAPSVEVTDEDTVKRYFAKFEEKFFQTCEKELAKINTFYSEKLAEAQRRFATLQNELQSSLDAQKESTGVTTLRQRRKPVFHLSHEERVQHRNIKDLKLAFSEFYLSLILLQNYQNLNFTGFRKILKKHDKILETSRGADWRVAHVEVAPFYTCKKINQLISETEAVVTNELEDGDRQKAMKRLRVPPLGAAQPAPAWTTFRVGLFCGIFIVLNITLVLAAVFKLETDRSIWPLIRIYRGGFLLIEFLFLLGINTYGWRQAGVNHVLIFELNPRSNLSHQHLFEIAGFLGILWCLSLLACFFAPISVIPTYVYPLALYGFMVFFLINPTKTFYYKSRFWLLKLLFRVFTAPFHKVGFADFWLADQLNSLSVILMDLEYMICFYSLELKWDESKGLLPNNSEESGICHKYTYGVRAIVQCIPAWLRFIQCLRRYRDTKRAFPHLVNAGKYSTTFFMVTFAALYSTHKERGHSDTMVFFYLWIVFYIISSCYTLIWDLKMDWGLFDKNAGENTFLREEIVYPQKAYYYCAIIEDVILRFAWTIQISITSTTLLPHSGDIIATVFAPLEVFRRFVWNFFRLENEHLNNCGEFRAVRDISVAPLNADDQTLLEQMMDQDDGVRNRQKNRSWKYNQSISLRRPRLASQSKARDTKVLIEDTDDEANT
stoichiometry N: 2
